The source of these data is patent US20200368345A1.

The assay addresses HLA-A*02:01 molecule (as used for thermal stability and structures) (human). The experiment in a line: thermal stability of the peptide-HLA-A*02:01 complex.

GLDNHTILL (modifications not checked) [BHA543-551 peptide]: the Tm (temperature required to unfold 50% of the protein) of the pHLA-A*02:01 complex was found to be 72 ° C. To NMLSTVLGV (modifications not checked) [PB1413-421 peptide] belongs 72 ° C.
